21 molecules from patent US20210340206A1 (SYLUS, published 2021) can be followed below.

Broadly, the Kd is the free concentration of one partner at which half of the binding sites on the other are occupied at equilibrium, for simple one-to-one binding. The low end stands for tighter binding, the high end for weaker binding.

The labels stand for the following.
T1: Soluble mouse EPOR chimera protein (R&D Systems) (mouse, UniProt P14753 25-249)
T1 construct: extracellular domain; Bought from R&D Systems; Amine-coupled to the SPR chip; also called erythropoietin receptor
T1 sequence (looked up): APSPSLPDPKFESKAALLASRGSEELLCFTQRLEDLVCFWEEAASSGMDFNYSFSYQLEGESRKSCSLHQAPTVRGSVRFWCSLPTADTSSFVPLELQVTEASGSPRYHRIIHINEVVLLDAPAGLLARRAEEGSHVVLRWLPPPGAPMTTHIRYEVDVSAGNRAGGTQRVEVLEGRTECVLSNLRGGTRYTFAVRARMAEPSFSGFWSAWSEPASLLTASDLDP

B1: ML1-H1 (peptide)
peptide: LQLHVLKAVSGLLTHTTLLKALG
B2: ML1 (peptide)
peptide: LQLHVDKAVSGLRSLTTLLRALG
notes: Synthetic monomer made by solid phase peptide synthesis; also called erythropoietin-derived peptide ML1
B3: ML1-C1 (peptide)
peptide: LDLEVDKAVSGLRSLTTLLRALG
notes: Charge-modified variant of ML1
B4: ML1-C2 (peptide)
peptide: LQRHVDKRVSGLRSLTTLLRALG
notes: as for B3
B5: ML1-H3 (peptide)
peptide: LQLHVLKAVAGLRTLAMIRRALA
B6: ML1-C3 (peptide)
peptide: LQRHVKKRVKGLKSLTTLLRALG
notes: as for B3
B7: ML1-H2 (peptide)
peptide: LQLHVLKAVSGLLTLTMIRRALG
B8: ML6 (peptide)
peptide: SGLRSLTTLLRALGAQKEAI
notes: Synthetic monomer
B9: ML1-1 (peptide)
peptide: LQLHVLKRVSGLLSHTMLLKALG
notes: Synthetic monomer
B10: ML4-1 (peptide)
peptide: KKAVSGLKTLTHILRALGAQKEAI
notes: Synthetic monomer
B11: ML7-1 (peptide)
peptide: DEALDLEVDKAATGLRTLTTLIRAL
notes: Synthetic monomer
B12: ML3-1 (peptide)
peptide: TRVNYQAWKR
notes: Synthetic monomer
B13: ML2 (peptide)
peptide: LHVDKAVSGLRSLTTLLRAL
notes: Synthetic monomer
B14: ML8-1 (peptide)
peptide: NKAVAGLRSLTVN
notes: Synthetic monomer
B15: ML2-1 (peptide)
peptide: RHVQKAESGLRSLTKLLREL
notes: Synthetic monomer
B16: ML6-1 (peptide)
peptide: KGLRSLISLLRALGAQKEAI
notes: Synthetic monomer
B17: ML3 (peptide)
peptide: TKVNFYAWKR
notes: Synthetic monomer
B18: ML5-1 (peptide)
peptide: AGLRSRAHLRRALA
notes: Synthetic monomer
B19: ML4 (peptide)
peptide: DKAVSGLRSLTTLLRALGAQKEAI
notes: Synthetic monomer
B20: ML5 (peptide)
peptide: SGLRSLTTLLRALG
notes: Synthetic monomer
B21: ML8 (peptide)
peptide: DKAVSGLRSLTTLLRAL
notes: Synthetic monomer

The first experiment deals with T1, Soluble mouse EPOR chimera protein (R&D …). The experiment in a line: SPR, mouse EPOR chimera amine-coupled to chip, peptide as analyte. (In SPR one partner is held on a chip, and binding of the other changes the refractive index at the surface.)
With B1, the Kd came out at 7.85 µM. This lies in the single-digit micromolar range.

With B2, the Kd is 6.46 µM.

On to B3, for which the Kd was 150 µM.

In the case of B4, the affinity, expressed as Kd, was 11.8 µM.

The molecule B5 returned a Kd of 1.15 µM.

The molecule B6 registered a Kd of 9.83 µM.

For B7, the Kd is 0.307 µM.

Another experiment has the same target. The description is as above. The source holds these as a separate data set. On the procedure: The SPR technique is to measure interactions between biomolecules in real-time by using an optical principle without specific labeling, and is a system analyzing affinity between two molecules and kinetics, i.e., an association rate (Ka) and a dissociation rate (Kd).
In detail, real-time SPR analysis was performed using Reichert SPR Biosensor SR 7500C instrument (Reichert Inc., NY, USA). Soluble mouse EPOR chimera proteins (R&D Systems, Minneapolis, Minn., USA) were covalently linked to a carboxymethylated dextran matrix-coated chip (BR-1005-39, Pharmacia Biosensor AB) by an amine coupling procedure using an amine coupling kit (BR-1000-50, GE Healthcare, USA) in accordance with manufacturer's instructions. […] For signal normalization, DMSO was applied at a flow rate of 5 μl/minute, and after each binding cycle, the sensor chip was regenerated by injecting 25 mM acetic acid at a flow rate of 20 μl/minute.
Regarding B8, binding was characterised by a dissociation constant (Kd) of 900 µM.

For the molecule B9, the Kd turned out to be 1.06 µM.

For B10, the Kd was around 39.3 µM.

Consider B11, for which the affinity, expressed as Kd, was 63.7 µM.

B12: the Kd was determined as 4.31 µM.

Molecule B13 came in with a Kd of 273 µM.

B14: binding was characterised by a dissociation constant (Kd) of 2370 µM.

On to B15, for which binding was put at a Kd of 14.3 µM.

B16 came in with a Kd of 158 µM.

On to B17, for which the dissociation constant (Kd) came out at 14.6 µM.

As to B18, the affinity, expressed as Kd, was 78.3 µM.

For the molecule B2, the Kd is 6.46 µM.

The molecule B19 came in with a Kd of 10 µM.

With B20, the Kd was determined as 0.329 µM.

B21: the Kd was 444 µM.
